Test results reported in the supplement of paper PMC10567573.

B1: KIAA1161 (parent)
chain: FMPAMQFSIPPWRYDAEVVAIAQK
B2: SLC2A12 (parent)
chain: CLLGLGSLVLILSLSYTVLIVGRI

Variants of: B1
Assay: protein stability index of a GFP-peptide fusion (GPS, HEK-293T) (PSI 1-6); higher = more stable
Conditions: c terminus: a fixed tail appended
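Note: lentivirally expressed fusions sorted by FACS into six bins by GFP to DsRed ratio, PSI derived from sequencing read proportions per bin multiplied by bin number.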

Protein stability index: each site, then its substitutions
M5: F 2.25 | L 2.25 | P 2.6 | Y 1.77 | K 1.95 | Q 2.24 | A 2.15 | E 2.81 | H 2.71 | N 1.9 | S 2.24
A20: C 2.22 | K 2.34 | Q 2.41 | P 2.16 | G 1.98 | N 3.44 | E 2.42 | R 1.98 | V 1.91
F1: P 2.33 | R 3.23 | A 2.3 | Y 1.82 | S 1.84 | C 1.97 | N 2.61 | W 1.95 | V 2.7 | Q 3.2 | G 2.04 | I 2.52
M2: N 1.61 | C 1.97 | Q 2.71 | Y 1.79 | W 2.09 | K 2.38 | R 2.45 | S 1.46 | H 1.74 | A 2.47 | D 3.16 | L 1.46
I21: P 2.16 | S 2.38 | H 2.32 | D 2.59 | E 2.6 | V 1.68 | Y 1.64 | K 2.07 | T 2.17 | G 2.66 | R 2.31 | N 2.11
Q23: F 1.35 | A 2.23 | P 1.99 | N 1.85 | D 2.69 | W 2.74 | Y 1.3 | H 1.66
D15: R 1.95 | K 1.25 | T 2.69 | N 3.08 | S 1.24 | Q 1.94 | E 2.5 | Y 3.05 | L 1.5 | G 1.75
I9: W 3.43 | M 2.04 | Y 2.83 | E 2.37 | F 2.48 | G 1.95 | R 1.6 | D 2.57 | K 1.84 | A 2 | Q 1.67 | P 1.93 | S 2.08
V19: T 2.21 | D 2.82 | A 2.18 | G 2.2 | E 2.42 | Q 2.5 | M 1.81 | F 2.48 | Y 3.33 | I 1.46 | R 2.83 | C 2.39 | N 3.31
P11: T 1.69 | K 1.65 | F 2.17 | C 1.79 | E 1.64 | Y 2.28 | R 1.48 | V 1.01 | Q 1.78 | I 1.59 | L 2.24 | H 3.1 | N 2.11 | D 2.37
A22: K 1.88 | L 2.45 | T 2.51 | P 2.58 | H 1.9 | S 1.94 | N 1.6 | Y 1.23 | V 2.01 | F 2.18 | Q 2.56
A16: Q 1.62 | H 1.63 | T 3.04 | Y 2.19 | V 2.52 | K 1.59 | R 2.65 | F 2.28 | D 2.25 | N 2.02 | I 3.3 | G 1.2 | P 2.08
Q6: N 2.66 | Y 1.34 | I 1.34 | T 1.55 | R 1.82 | E 1.83 | K 1.93 | D 1.92 | G 1.83 | S 1.83 | A 2.33 | V 3.24
V18: L 2.23 | F 1.62 | M 1.88 | Q 2.81 | R 3.34 | S 2.05 | W 3.22 | Y 2.03 | P 2.96 | A 2.17 | E 2.63 | K 2.33 | I 2.06 | D 2.36
P3: V 2.33 | I 2.58 | C 2.02 | F 1.73 | A 2.35 | Q 1.28 | K 2.58
Y14: C 1.67 | G 1.93 | A 2.2 | D 2.2 | T 2.82 | M 2.25 | N 2.37 | K 2.08 | I 1.05 | S 2.13 | L 1.59 | P 1.79 | H 2.52
K24: S 1.68 | L 2.62 | R 1.67 | P 2.01 | T 1.63 | V 2.36 | E 1.82 | F 2 | D 1.82 | N 2.58 | H 2.54 | C 1.61
P10: W 3.74 | E 2.5 | K 2.57 | D 1.27 | Y 2.34 | S 2.42 | Q 1.64 | R 1.28 | A 1.33 | M 1 | I 2.86 | G 1.33 | L 2.99
W12: S 2.48 | G 2.76 | C 1.73 | Q 2.3 | N 2.49 | R 2.39 | A 2.31 | H 2.53 | D 2.55 | T 2.44 | F 2.26 | I 2.18
A4: C 1.47 | D 3.44 | E 2.34 | P 2.29 | G 2.34 | L 2.09 | N 1.56 | M 1.86 | Q 1.97 | H 2.68 | R 2.66
F7: W 1.68 | L 1.82 | I 2.9 | S 1.6 | K 1.7 | T 2.24 | G 1.61 | C 2.61 | E 2.34 | Q 2.89 | D 2.9 | P 2.08 | N 2.24 | Y 1.7
E17: I 1.52 | F 2.13 | C 1.68 | H 1.92 | S 1.62 | N 1.62 | W 3.06 | A 1.2 | G 1.72 | R 1.38 | K 2.66 | Y 2.45
R13: V 1.16 | K 2.21 | F 1.1 | E 2.48 | W 1.58 | Y 1.69 | S 1.63 | D 2.67 | G 1.53 | N 2.51 | I 1.81
S8: A 1.69 | R 1.99 | L 2.05 | I 2.81 | C 1.07 | N 2.7 | P 2.1 | G 1.65 | Q 2.11 | K 2.93 | F 2.68 | V 2 | M 1.71 | D 1.54

Variants of: B2
Assay: as above
Conditions: c terminus: a fixed tail appended

Protein stability index: each site, then its substitutions
I20: L 3.62 | M 2.69 | Q 3.17 | P 2.85 | N 3.97
I24: F 2.09 | K 2.5 | H 4.96 | W 3.02 | V 2.79 | L 2.31 | R 4.47 | S 4.47
G22: E 3.84 | T 4.65 | H 2.75 | F 3.4 | V 3.25 | S 2.04 | Q 3.23 | K 2.08
V18: H 2.43 | T 2.93 | M 4.12 | S 3.07 | K 2.98 | L 2.48
V21: I 3.74 | L 2.77 | Y 3.38 | E 1.97 | F 4.2 | C 3.06 | P 3.7
R23: A 1.68 | K 3.91 | L 2.88 | E 3.06 | Y 1.35 | I 1.07 | T 2.41 | F 1.85 | Q 2.57 | C 3.83 | M 2.33
L19: R 4.06 | N 2.96 | V 3.24 | H 3.95 | W 1.77 | P 3.35
